Experimental data taken from publication PMC3742519.
pKi: −log10 of the molar value.

Target: subtilisin A (Bacillus licheniformis) (Bacillus licheniformis) (UniProt P00780)
Assay: enzyme inhibition kinetics (Lineweaver–Burk); substrate (AAPF) added to an equilibrium mixture of subtilisin A and rEs-DWD1; competitive inhibition, inhibitor at 0, 2.5 and 5 μM; 0.1 M Tris-HCl pH 8.0, 37 °C; p-nitroaniline read at 405 nm

Sequence of UniProt P00780 (P00780 106-379): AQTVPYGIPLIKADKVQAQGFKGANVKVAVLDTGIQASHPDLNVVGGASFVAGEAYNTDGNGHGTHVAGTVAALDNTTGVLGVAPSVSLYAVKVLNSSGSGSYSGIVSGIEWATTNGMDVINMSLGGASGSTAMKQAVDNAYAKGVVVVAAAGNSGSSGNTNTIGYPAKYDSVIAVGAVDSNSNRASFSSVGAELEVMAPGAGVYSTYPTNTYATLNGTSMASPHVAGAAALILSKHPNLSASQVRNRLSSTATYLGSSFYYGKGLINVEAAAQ

pKi: 8.39
Substance: recombinant Es-DWD1 (double WAP domain-containing protein from Eriocheir sinensis) (natural protein)
